This passage reports Kd, koff and kon results from US20160083465A1 (AVEO PHARMACEUTICALS, published 2016).

Holding throughout (assay): SPR Biacore T100, 37 C, antibody captured by anti-mouse IgG, antigen in solution
A general note: In SPR one partner is held on a chip, and binding of the other changes the refractive index at the surface.

Assay [1] addresses T1, mouse IgG1 Fc-mature human GDF15 fusion protein (mFc-rhGDF15) (mouse; human).
T1 construct: Made in CHOK1SV cells, purified by Protein A and size exclusion; also called mouse Fc fused to human GDF15
T1 chain: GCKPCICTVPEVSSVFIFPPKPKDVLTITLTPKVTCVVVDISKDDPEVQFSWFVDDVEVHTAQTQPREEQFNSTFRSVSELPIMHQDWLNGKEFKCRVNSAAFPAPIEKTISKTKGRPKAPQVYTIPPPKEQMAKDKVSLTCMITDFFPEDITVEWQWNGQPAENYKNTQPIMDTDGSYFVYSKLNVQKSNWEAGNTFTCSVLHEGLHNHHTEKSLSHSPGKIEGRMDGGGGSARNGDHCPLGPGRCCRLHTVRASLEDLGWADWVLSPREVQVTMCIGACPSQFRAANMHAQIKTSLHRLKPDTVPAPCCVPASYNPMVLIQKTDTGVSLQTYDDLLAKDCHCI
The procedure:
(§1) Rabbit anti-mouse IgGs (GE Healthcare) were immobilized on carboxymethylated dextran CM4 sensor chips (GE Healthcare) by amine coupling, according to a standard protocol. Analyses were performed at 37° C. using PBS containing 0.05% surfactant P20 as running buffer. The antibodies were captured in individual flow cells at a flow rate of 10 μL/minute. Injection time was varied for each antibody to yield an Rmax between 30 and 60 RU. 250 μg/mL mouse Fc (Jackson ImmunoResearch, West Grove, Pa.) was injected at 30 μL/minute for 120 seconds to block non-specific binding of capture antibodies to mouse Fc portion of the recombinant GDF15 protein when needed. […] The dissociation phase was monitored for up to 1500 seconds. The surface was then regenerated with two 60-second injections of 10 mM Glycine-HCl, pH 1.7, at a flow rate of 30 μL/minute.
(§2) Kinetic parameters were determined using the kinetic function of the BIAevaluation software (GE Healthcare) with double reference subtraction.

A further assay addresses T2, cleaved-rhGDF15 (human, UniProt Q99988 197-308).
T2 sequence: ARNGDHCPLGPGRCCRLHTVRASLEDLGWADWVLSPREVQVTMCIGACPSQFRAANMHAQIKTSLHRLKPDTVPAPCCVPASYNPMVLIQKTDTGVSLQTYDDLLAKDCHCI
As to the method:
as §1, §2

Assay [2] deals with T3, 6xHis tagged recombinant human GDF15 (His-rhGDF15) (human, UniProt Q99988 197-308).
T3 construct: Bought from R&D Systems
T3 sequence: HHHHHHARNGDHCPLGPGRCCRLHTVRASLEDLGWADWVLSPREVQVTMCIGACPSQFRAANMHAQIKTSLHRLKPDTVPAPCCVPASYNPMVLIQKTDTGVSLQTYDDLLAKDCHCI
The procedure:
as §1, §2

For assay [3], the target named is T4, untagged recombinant human GDF15 (rhGDF15 (Peprotech)) (human, UniProt Q99988 197-308, limits assumed).
T4 construct: Bought from Peprotech
T4 sequence (looked up): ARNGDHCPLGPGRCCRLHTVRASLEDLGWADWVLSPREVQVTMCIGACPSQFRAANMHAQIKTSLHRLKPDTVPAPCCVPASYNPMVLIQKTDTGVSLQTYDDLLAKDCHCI
As to the method:
as §1, §2

B1: 06C11 (antibody, mouse IgG1, kappa)
heavy: QVTLKESGPGILQPSQTLSLTCSFSGFSLNTYGMGVSWIRQPSGKGLEWLAHIYWDDDKRYNPSLKSRLTISKDASNNRVFLKITSVDTADTATYYCAQRGYDDYWGYWGQGTLVTISAAKTTPPSVYPLAPGSAAQTNSMVTLGCLVKGYFPEPVTVTWNSGSLSSGVHTFPAVLQSDLYTLSSSVTVPSSTWPSETVTCNVAHPASSTKVDKKIVPRDCGCKPCICTVPEVSSVFIFPPKPKDVLTITLTPKVTCVVVDISKDDPEVQFSWFVDDVEVHTAQTQPREEQFNSTFRSVSELPIMHQDWLNGKEFKCRVNSAAFPAPIEKTISKTKGRPKAPQVYTIPPPKEQMAKDKVSLTCMITDFFPEDITVEWQWNGQPAENYKNTQPIMDTDGSYFVYSKLNVQKSNWEAGNTFTCSVLHEGLHNHHTEKSLSHSPGK
light: DIVMTQSQKFMSTSVGDRVSVTCKASQNVGTNVAWFQQKPGQSPKALIYSASYRYSGVPDRFTGSGSGTDFILTISNVQSEDLAEYFCQQYNNYPLTFGAGTKLELKRADAAPTVSIFPPSSEQLTSGGASVVCFLNNFYPKDINVKWKIDGSERQNGVLNSWTDQDSKDSTYSMSSTLTLTKDEYERHNSYTCEATHKTSTSPIVKSFNRNEC
notes: Murine monoclonal from hybridoma, IgG1 kappa; also called antibody 06C11
Usually Kd stands for a measure of binding affinity in units of concentration. One may read the koff as a measure of how fast the partners let go of each other. Broadly, the kon is a measure of how fast the partners come together. Turning to B1, the Kd worked out at 0.17 nM in assay [1], 0.17 nM in the assay with cleaved-rhGDF15, 0.051 nM in assay [2] and 0.21 nM in assay [3]. The koff was 0.00068 s⁻¹ in assay [1], 0.002 s⁻¹ with cleaved-rhGDF15, 0.0015 s⁻¹ in assay [2] and 0.0046 s⁻¹ in assay [3]. The kon worked out at 4.5e+06 M⁻¹ s⁻¹ in assay [1], 1.2e+07 M⁻¹ s⁻¹ with cleaved-rhGDF15, 2.9e+07 M⁻¹ s⁻¹ in assay [2] and 2.2e+07 M⁻¹ s⁻¹ in assay [3].

B2: 14F11 (antibody, mouse IgG1, kappa)
heavy: QVTLKESGPGILQPSQTLSLTCSFSGFSLSTYGMGVGWIRQPSGKGLEWLADIWWDDDKYYNPSLKSRLTISKDTSSNEVFLKIAIVDTADTATYYCARRGHYSAMDYWGQGTSVTVSSAKTTPPSVYPLAPGSAAQTNSMVTLGCLVKGYFPEPVTVTWNSGSLSSGVHTFPAVLQSDLYTLSSSVTVPSSTWPSETVTCNVAHPASSTKVDKKIVPRDCGCKPCICTVPEVSSVFIFPPKPKDVLTITLTPKVTCVVVDISKDDPEVQFSWFVDDVEVHTAQTQPREEQFNSTFRSVSELPIMHQDWLNGKEFKCRVNSAAFPAPIEKTISKTKGRPKAPQVYTIPPPKEQMAKDKVSLTCMITDFFPEDITVEWQWNGQPAENYKNTQPIMDTDGSYFVYSKLNVQKSNWEAGNTFTCSVLHEGLHNHHTEKSLSHSPGK
light: DIVMTQSQKFMSTSVGDRVSVTCKASQNVGTNVAWYQQKPGQSPKALIYSPSYRYSGVPDRFTGSGSGTDFTLTISNVQSEDLAEYFCQQYNSYPHTFGGGTKLEMKRADAAPTVSIFPPSSEQLTSGGASVVCFLNNFYPKDINVKWKIDGSERQNGVLNSWTDQDSKDSTYSMSSTLTLTKDEYERHNSYTCEATHKTSTSPIVKSFNRNEC
notes: Murine monoclonal from hybridoma, IgG1 kappa; also called antibody 14F11
Regarding B2, the Kd in assay [1] was 0.22 nM; with cleaved-rhGDF15, 0.11 nM; in assay [2], 0.096 nM; in assay [3], 0.071 nM. Also, the koff worked out at 0.00033 s⁻¹ in assay [1], 0.0006 s⁻¹ in the assay with cleaved-rhGDF15, 0.00042 s⁻¹ in assay [2] and 0.0022 s⁻¹ in assay [3]. Besides, the kon in assay [1] stood at 1.7e+06 M⁻¹ s⁻¹; with cleaved-rhGDF15, 5.7e+06 M⁻¹ s⁻¹; in assay [2], 4.4e+06 M⁻¹ s⁻¹; in assay [3] it was 3.1e+07 M⁻¹ s⁻¹.

B3: 01G06 (antibody, mouse IgG1, kappa)
heavy: EVLLQQSGPELVKPGASVKIPCKASGYTFTDYNMDWVKQSHGKSLEWIGQINPNNGGIFFNQKFKGKATLTVDKSSNTAFMEVRSLTSEDTAVYYCAREAITTVGAMDYWGQGTSVTVSSAKTTPPSVYPLAPGSAAQTNSMVTLGCLVKGYFPEPVTVTWNSGSLSSGVHTFPAVLQSDLYTLSSSVTVPSSTWPSETVTCNVAHPASSTKVDKKIVPRDCGCKPCICTVPEVSSVFIFPPKPKDVLTITLTPKVTCVVVDISKDDPEVQFSWFVDDVEVHTAQTQPREEQFNSTFRSVSELPIMHQDWLNGKEFKCRVNSAAFPAPIEKTISKTKGRPKAPQVYTIPPPKEQMAKDKVSLTCMITDFFPEDITVEWQWNGQPAENYKNTQPIMDTDGSYFVYSKLNVQKSNWEAGNTFTCSVLHEGLHNHHTEKSLSHSPGK
light: DIQMTQSPASLSASVGETVTITCRTSENLHNYLAWYQQKQGKSPQLLVYDAKTLADGVPSRFSGSGSGTQYSLKINSLQPEDFGSYYCQHFWSSPYTFGGGTKLEIKRADAAPTVSIFPPSSEQLTSGGASVVCFLNNFYPKDINVKWKIDGSERQNGVLNSWTDQDSKDSTYSMSSTLTLTKDEYERHNSYTCEATHKTSTSPIVKSFNRNEC
notes: Murine monoclonal from hybridoma, IgG1 kappa; also called antibody 01G06
Regarding B3, the Kd worked out at 0.21 nM in assay [1], 0.11 nM with cleaved-rhGDF15, 0.081 nM in assay [2] and 0.093 nM in assay [3]. The koff in assay [1] was 0.0007 s⁻¹; with cleaved-rhGDF15, 0.00086 s⁻¹; in assay [2], 0.0011 s⁻¹; in assay [3], 0.0019 s⁻¹. Further, the kon was 5.6e+06 M⁻¹ s⁻¹ in assay [1], 7.5e+06 M⁻¹ s⁻¹ with cleaved-rhGDF15, 1.4e+07 M⁻¹ s⁻¹ in assay [2] and 2.1e+07 M⁻¹ s⁻¹ in assay [3].
